Measurements reported in article PMC10600457.

Legend:
Test in all cases: SPR
FcγRIIA = FcγRIIA (UniProt P12318)
FcγRIIIA-158V = target: FcγRIIIA-158V
FcγRI = FcγRI (UniProt P12314)
FcγRIIB = FcγRIIB (UniProt P31994)
Chain of UniProt P31994 (P31994 43-310): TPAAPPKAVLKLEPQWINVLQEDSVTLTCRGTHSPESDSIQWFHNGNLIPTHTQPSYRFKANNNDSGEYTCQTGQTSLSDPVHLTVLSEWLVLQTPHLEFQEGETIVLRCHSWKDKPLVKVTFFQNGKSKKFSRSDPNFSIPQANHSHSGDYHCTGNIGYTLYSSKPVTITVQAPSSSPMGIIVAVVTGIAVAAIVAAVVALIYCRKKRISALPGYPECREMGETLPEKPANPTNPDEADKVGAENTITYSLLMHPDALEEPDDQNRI

Chain of UniProt P12314 (P12314 16-374): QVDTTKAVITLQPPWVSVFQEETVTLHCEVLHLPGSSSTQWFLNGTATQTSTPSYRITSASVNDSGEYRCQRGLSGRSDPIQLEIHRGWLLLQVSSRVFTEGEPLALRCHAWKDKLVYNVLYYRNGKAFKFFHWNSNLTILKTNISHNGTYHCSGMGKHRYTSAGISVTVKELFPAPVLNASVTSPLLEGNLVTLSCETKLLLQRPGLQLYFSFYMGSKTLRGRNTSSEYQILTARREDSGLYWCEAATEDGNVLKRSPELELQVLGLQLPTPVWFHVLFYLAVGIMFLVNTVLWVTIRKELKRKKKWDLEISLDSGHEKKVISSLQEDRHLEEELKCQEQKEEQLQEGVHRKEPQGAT

Row | Binder | Kd (FcγRIIA) | Kd (FcγRIIIA-158V) | Kd (FcγRI) | Kd (FcγRIIB)
1 | Nirsevimab (antibody, V domains shown) VH: QVQLVQSGAEVKKPGSSVMVSCQASGGLLEDYIINWVRQAPGQGPEWMGGIIPVLGTVHYGPKFQGRVTITADESTDTAYMELSSLRSEDTAMYYCATETALVVSETYLPHYFDNWGQGTLVTVSS VL: DIQMTQSPSSLSAAVGDRVTITCQASQDIVNYLNWYQQKPGKAPKLLIYVASNLETGVPSRFSGSGSGTDFSLTISSLQPEDVATYYCQQYDNLPLTFGGGTKVEIK | 9300 nM | 2110 nM | 10.3 nM | 
2 | MEDI8897*-TM (antibody, V domains shown) VH: QVQLVQSGAEVKKPGSSVMVSCQASGGLLEDYIINWVRQAPGQGPEWMGGIIPVLGTVHYGPKFQGRVTITADESTDTAYMELSSLRSEDTAMYYCATETALVVSETYLPHYFDNWGQGTLVTVSS VL: DIQMTQSPSSLSAAVGDRVTITCQASQDIVNYLNWYQQKPGKAPKLLIYVASNLETGVPSRFSGSGSGTDFSLTISSLQPEDVATYYCQQYDNLPLTFGGGTKVEIK | 34400 nM | 5150 nM | 240 nM | 

These reach a lower Kd (FcγRIIA). Values come first.

Row | Kd (FcγRIIA) | Kd (FcγRIIIA-158V) | Kd (FcγRI) | Kd (FcγRIIB) | Binder
3 | 3720 nM | 1150 nM | 1.24 nM | 13500 nM | MEDI8897* (antibody, V domains shown) VH: QVQLVQSGAEVKKPGSSVMVSCQASGGLLEDYIINWVRQAPGQGPEWMGGIIPVLGTVHYGPKFQGRVTITADESTDTAYMELSSLRSEDTAMYYCATETALVVSETYLPHYFDNWGQGTLVTVSS VL: DIQMTQSPSSLSAAVGDRVTITCQASQDIVNYLNWYQQKPGKAPKLLIYVASNLETGVPSRFSGSGSGTDFSLTISSLQPEDVATYYCQQYDNLPLTFGGGTKVEIK
4 | 2780 nM | 882 nM | 1.01 nM | 12500 nM | Palivizumab (antibody, V domains shown) VH: QVTLRESGPALVKPTQTLTLTCTFSGFSLSTSGMSVGWIRQPPGKALEWLADIWWDDKKDYNPSLKSRLTISKDTSKNQVVLKVTNMDPADTATYYCARSMITNWYFDVWGAGTTVTVSS VL: DIQMTQSPSTLSASVGDRVTITCKCQLSVGYMHWYQQKPGKAPKLLIYDTSKLASGVPSRFSGSGSGTEFTLTISSLQPDDFATYYCFQGSGYPFTFGGGTKLEIK
